Assay results published in article PMC4013577.

Legend:
anti-hIgG (IgG2a) [1] = experiment: SPR; Autolab ESPRIT, room temperature, PBS pH 7.4; anti-hIgG adsorbed on the Cal-4 derivative 1 (ethylester) SAM on gold, blocked with 0.1 mg/mL BSA, then 100 μL of 10 μg/mL protein G
anti-hIgG (IgG2a) [2] = experiment: SPR; Autolab ESPRIT, room temperature, PBS pH 7.4; anti-hIgG adsorbed on the Cal-4 derivative 2 (carboxylic acid) SAM on gold, blocked with 0.1 mg/mL BSA, then 100 μL of 10 μg/mL protein G

Q: For “Protein G (from UniProt P06654 34-417) (natural protein)”, which SPR angle shift (anti-hIgG (IgG2a) [1]) is on record?
A: The SPR angle shift was 32.6 m°.

Q: What about the SPR angle shift (anti-hIgG (IgG2a) [2]) of the same substance?
A: Its SPR angle shift is 94 m°.
